The source of these data is article PMC10039900, “Characterization of human oxidoreductases involved in aldehyde odorant metabolism” (Scientific Reports, 2023).

The data set concerns the molecule itself. Briefly: crystal structure; sitting drop vapor diffusion at 20 °C, ALDH3A1 2 mg/ml, 18% PEG 3350 in 0.1 M potassium acetate pH 7.5; crystals soaked in mother liquor plus 10 mM octanal; 1.80 Å.

B1: aldehyde dehydrogenase family 3 member A1 (ALDH3A1) (enzyme, human)
chain: SKISEAVKRARAAFSSGRTRPLQFRIQQLEALQRLIQEQEQELVGALAADLHKNEWNAYYEEVVYVLEEIEYMIQKLPEWAADEPVEKTPQTQQDELYIHSEPLGVVLVIGTWNYPFNLTIQPMVGAIAAGNSVVLKPSELSENMASLLATIIPQYLDKDLYPVINGGVPETTELLKERFDHILYTGSTGVGKIIMTAAAKHLTPVTLELGGKSPCYVDKNCDLDVACRRIAWGKFMNSGQTCVAPDYILCDPSIQNQIVEKLKKSLKEFYGEDAKKSRDYGRIISARHFQRVMGLIEGQKVAYGGTGDAATRYIAPTILTDVDPQSPVMQEEIFGPVLPIVCVRSLEEAIQFINQREKPLALYMFSSNDKVIKKMIAETSSGGVAANDVIVHITLHSLPFGGVGNSGMGSYHGKKSFETFSHRRSCLVRPLMNDEGLKVRYPPSPAKMTQH
notes: human ALDH3A1, UniProt P30838; Subcloned between NdeI and SacI; The crystal was soaked with 10 mM octanal (a small molecule, not a partner); also called aldehyde dehydrogenase 3A1; Aldehyde dehydrogenase, dimeric NADP-preferring; source: E. coli BL21(DE3), purified (two ammonium sulfate precipitations, two chromatography steps)
In the case of B1, the binding result is on record as “binds”.
